The record followed here is patent publication US7972772B2, “KIF11 and method for diagnosing non-small cell lung cancer” (Oncotherapy Science, Inc., priority 2004, dated 2011).

One assay deals with RAB35 mRNA. As to the kind of experiment: Northwestern blot analysis with DIG-labeled RAB35 mRNA. The following applies: deletion mutants expressed in A549 cells, compared to full-length KOC1. It counts as binding. The method, then: Immunoprecipitated extracts from cells transfected with the KOC1 deletion mutants (μM) were boiled in 2×SDS-sample buffer, electrophoresed through 10-20% gradient polyacrylamide gels (BIO-RAD) and transferred to a polyvinylidene difluoride membrane (Hybond-P). The membrane was then blocked for 1 hour at room temperature in blocking buffer (10 mM Tris-HCl (pH 7.8), 150 mM NaCl, 1 mg/ml yeast tRNA), and washed twice with 50 ml of 10 mM Tris-HCl (pH 7.8) for 5 min and incubated with DIG-labeled RNA probe in 5 ml of NWB buffer (10 mM Tris-HCl (pH 7.8), 1 mM EDTA, 50 mM NaCl, 0.02% Ficoll, 0.02% polyvinyl pyrrolidone, 0.02% BSA) for 2 hours at room temperature. The membrane was washed four times with NWB buffer and the RNA probe bound to the proteins was then detected using DIG nucleic acid detection kit (Roche) according to the supplier's protocol.
To determine the region of KOC1 that is required for binding to KOC1-associated mRNAs, we performed northwestern blot analysis using immunoprecipitated recombinant proteins of KOC1 deletion-mutants expressed in A549 cells (FIG. 4a) and DIG-labeled RAB35 mRNA, which is one of the KOC1 associated mRNAs.

The target in another assay is T1, KOC1-KIF11 complex (Homo sapiens, UniProt P52732).
T1 construct: endogenous in cells; host or cells: LC319 (KOC1DEL3) and A549 (KOC1DEL2)
T1 sequence (P52732 1-1056): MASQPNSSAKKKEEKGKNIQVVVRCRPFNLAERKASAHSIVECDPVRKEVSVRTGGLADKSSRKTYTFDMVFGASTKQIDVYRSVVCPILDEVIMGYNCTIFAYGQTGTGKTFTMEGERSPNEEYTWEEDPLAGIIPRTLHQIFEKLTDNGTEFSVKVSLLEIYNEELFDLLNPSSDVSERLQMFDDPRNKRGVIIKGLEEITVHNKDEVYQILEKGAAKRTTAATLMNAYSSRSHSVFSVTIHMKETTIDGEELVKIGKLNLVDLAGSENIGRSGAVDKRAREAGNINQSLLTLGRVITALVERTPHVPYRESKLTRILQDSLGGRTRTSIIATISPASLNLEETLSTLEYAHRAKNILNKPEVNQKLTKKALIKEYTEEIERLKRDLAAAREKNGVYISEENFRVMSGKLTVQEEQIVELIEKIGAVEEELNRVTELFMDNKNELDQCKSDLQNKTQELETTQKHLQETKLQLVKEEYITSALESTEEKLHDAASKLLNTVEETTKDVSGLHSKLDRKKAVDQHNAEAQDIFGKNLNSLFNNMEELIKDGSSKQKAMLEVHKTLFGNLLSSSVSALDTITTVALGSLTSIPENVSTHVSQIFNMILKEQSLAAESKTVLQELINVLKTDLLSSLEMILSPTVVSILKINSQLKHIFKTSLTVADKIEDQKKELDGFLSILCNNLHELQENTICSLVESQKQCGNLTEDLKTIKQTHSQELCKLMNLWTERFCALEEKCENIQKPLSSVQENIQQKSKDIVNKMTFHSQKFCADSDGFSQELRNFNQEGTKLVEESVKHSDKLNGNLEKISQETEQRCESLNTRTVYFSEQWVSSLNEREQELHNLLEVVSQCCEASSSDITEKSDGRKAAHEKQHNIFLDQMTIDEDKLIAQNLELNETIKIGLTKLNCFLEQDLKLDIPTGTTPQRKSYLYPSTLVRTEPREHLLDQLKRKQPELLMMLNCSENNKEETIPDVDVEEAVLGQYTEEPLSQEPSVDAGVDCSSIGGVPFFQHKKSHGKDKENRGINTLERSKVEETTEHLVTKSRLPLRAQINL
Nature of the assay: Immunoprecipitation of endogenous KOC1-KIF11 complex after dominant-negative transfection. In kind it is cell-based. The protocol: We performed dominant-negative assays using the KOC1 deletion mutants to investigate the functional role of the KOC1-KIF11 complex in growth or survival of lung-cancer cells. The KOC1DEL3 and KOC1DEL2 construct (FIG. 3a; 10 μg), mock plasmid (10 μg), or plasmid mixtures of both constructs in the final dose of 10-μg DNA (KOC1DEL3 or KOC1DEL2 vs mock (μg), 7.5:2.5; 5:5; or 2.5:7.5, individually) were transfected into LC319 cells. The transfected cells were cultured for 7 days in the presence of G418 and their viability was measured by triplicate MTT assays.
To investigate the functional significance of KOC1-KIF11 interaction for growth or survival of lung-cancer cells, a deletion fragment of KOC1 containing the two RRMs, which was able to interact with KIF11 (KOC1DEL3; FIG. 3a, b) was examined for a dominant-negative function of suppressing direct interaction between endogenous KOC1 and KIF11. […] We also confirmed that transfection of construct containing only KH-domains control have no effect on proliferation. […]

The target in another assay is T2, endogenous KIF11 (Homo sapiens, UniProt P52732).
T2 construct: endogenous in cells
T2 sequence (P52732 1-1056): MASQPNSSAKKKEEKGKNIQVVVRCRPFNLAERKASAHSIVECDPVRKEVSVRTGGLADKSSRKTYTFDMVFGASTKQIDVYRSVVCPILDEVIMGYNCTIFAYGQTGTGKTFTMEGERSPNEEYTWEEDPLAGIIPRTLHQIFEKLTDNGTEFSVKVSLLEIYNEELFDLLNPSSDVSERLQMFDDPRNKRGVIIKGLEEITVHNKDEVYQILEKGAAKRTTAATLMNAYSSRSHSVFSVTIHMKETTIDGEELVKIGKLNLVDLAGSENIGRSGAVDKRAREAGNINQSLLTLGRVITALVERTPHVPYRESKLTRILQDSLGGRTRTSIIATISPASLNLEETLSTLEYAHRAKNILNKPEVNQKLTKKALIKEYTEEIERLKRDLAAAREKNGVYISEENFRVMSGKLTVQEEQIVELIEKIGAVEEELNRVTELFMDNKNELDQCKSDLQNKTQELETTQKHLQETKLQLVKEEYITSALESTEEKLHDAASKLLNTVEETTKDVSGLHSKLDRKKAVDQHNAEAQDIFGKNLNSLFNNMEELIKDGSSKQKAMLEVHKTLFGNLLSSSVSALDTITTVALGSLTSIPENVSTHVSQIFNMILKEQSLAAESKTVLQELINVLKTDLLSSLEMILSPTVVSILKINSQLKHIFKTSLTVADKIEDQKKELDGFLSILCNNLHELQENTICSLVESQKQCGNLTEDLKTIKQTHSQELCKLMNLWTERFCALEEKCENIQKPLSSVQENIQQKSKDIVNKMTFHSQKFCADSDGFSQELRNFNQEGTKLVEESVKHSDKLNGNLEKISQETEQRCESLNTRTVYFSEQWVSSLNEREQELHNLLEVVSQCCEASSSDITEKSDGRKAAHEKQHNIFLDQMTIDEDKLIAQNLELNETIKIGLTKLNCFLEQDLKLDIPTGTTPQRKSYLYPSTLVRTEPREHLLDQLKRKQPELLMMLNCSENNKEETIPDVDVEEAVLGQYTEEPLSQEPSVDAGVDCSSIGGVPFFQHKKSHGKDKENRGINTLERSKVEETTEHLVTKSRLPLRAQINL
As to the kind of experiment: Immunoprecipitation of KOC1 deletion mutants with endogenous KIF11. In kind it is binding.

A further assay concerns LC319 cells. As to the kind of experiment: Triplicate MTT assay of cell viability, LC319. It counts as cell-based, human. The following applies: LC319, plasmid 2.5-10 μg vs mock, 7 days with G418; P<0.001 KOC1DEL3 vs mock. The protocol:
Using 30 μl of Lipofectamine 2000 (Invitrogen), 10 μg of siRNA-expression vector were transfected into NSCLC cell lines, A549 and LC319, both endogenously over-expressing KOC1, KIF11, NMU, GHSR1b, NTSR1, RAB35, and FOXM1. […] The transfected cells were cultured for five days in the presence of appropriate concentrations of geneticin (G418), and then, cell numbers and viability were measured by Giemsa staining and triplicate MTT assays. The target sequences of the synthetic oligonucleotides for RNAi were as follows: control 1 (EGFP: enhanced green fluorescent protein (EGFP) gene, a mutant of Aequorea victoria EGFP), 5′-[…]-3′ (SEQ.ID.NO.29); control 2 (Luciferase: Photinus pyralis luciferase gene), 5′-[…]-3′ (SEQ.ID.NO.30); control 3 (Scramble: chloroplast Euglena gracilis gene coding for 5S and 16S rRNAs), 5′-[…]-3′ (SEQ. ID. NO.31);
We performed dominant-negative assays using the KOC1 deletion mutants to investigate the functional role of the KOC1-KIF11 complex in growth or survival of lung-cancer cells. […] The transfected cells were cultured for 7 days in the presence of G418 and their viability was measured by triplicate MTT assays.
Background: Formazan colour is commonly taken as a measure of viable cells.

A further assay relates to A549 cells. Nature of the assay: Triplicate MTT assay of cell viability, A549. Particulars: A549, plasmid dose-dependent vs mock; P=0.0006 KOC1DEL2 vs mock. In kind it is cell-based, human.

B1: KOC1DEL3: KOC1 deletion mutant 2×RRM without KH, positions 1-197 of SEQ ID NO:105 (protein, listed as Homo sapiens)
chain: MNKLYIGNLSENAAPSDLESIFKDAKIPVSGPFLVKTGYAFVDCPDESWALKAIEALSGKIELHGKPIEVEHSVPKRQRIRKLQIRNIPPHLQWEVLDSLLVQYGVVESCEQVNTDSETAVVNVTYSSKDQARQALDKLNGFQLENFTLKVAYIPDEMAAQQNPLQQPRGRRGLGQRGSSRQGSPGSVSKQKPCDLP
For B1, in the assay with RAB35 mRNA, the “binding to RAB35 mRNA (northwestern blot)” value was “did not bind”. Also, the “complex formation between endogenous KOC1 and KIF11” value with KOC1-KIF11 complex (LC319 cells over-expressing the RRM domains) is given as “reduce complex formation”. Besides, in the assay with endogenous KIF11 (LC319 cells), the “interaction with endogenous KIF11 (immunoprecipitation)” value is “detected interaction”. For the same molecule, in the assay on LC319 cells, the “cell viability (MTT), dominant-negative assay” value is listed as “significant dose-dependent decreases”.

B2: KOC1DEL2: KOC1 deletion mutant 2×RRM+2×KH, positions 1 to 406 of SEQ ID NO:105 (protein, listed as Homo sapiens)
chain: MNKLYIGNLSENAAPSDLESIFKDAKIPVSGPFLVKTGYAFVDCPDESWALKAIEALSGKIELHGKPIEVEHSVPKRQRIRKLQIRNIPPHLQWEVLDSLLVQYGVVESCEQVNTDSETAVVNVTYSSKDQARQALDKLNGFQLENFTLKVAYIPDEMAAQQNPLQQPRGRRGLGQRGSSRQGSPGSVSKQKPCDLPLRLLVPTQFVGAIIGKEGATIRNITKQTQSKIDVHRKENAGAAEKSITILSTPEGTSAACKSILEIMHKEAQDIKFTEEIPLKILAHNNFVGRLIGKEGRNLKKIEQDTDTKITISPLQELTLYNPERTITVKGNVETCAKAEEEIMKKIRESYENDIASMNLQAHLIPGLNLNALGLFPPTSGMPPPTSGPPSAMTPPYPQFEQSETE
B2: in the assay with RAB35 mRNA, the “binding to RAB35 mRNA (northwestern blot)” value is “very weak binding affinities”. Besides, in the assay on A549 cells, the “cell viability (MTT), dominant-negative assay” value is recorded as “significant dose-dependent decreases”. In addition, in the assay with KOC1-KIF11 complex (A549 cells over-expressing KOC1DEL2), the “complex formation between endogenous KOC1 and KIF11” value is listed as “reduced complex formation”. In addition, in the assay with endogenous KIF11 (A549 cells), the “interaction with endogenous KIF11 (immunoprecipitation)” value was “detected interaction”.
